From the supplement of paper PMC7125110 come the findings set out here.

First the molecules themselves.
B1: glmS ribozyme (parent)
chain: AUAAAAGCGCCAGAACUACAGAAAUGUAGUUGACGAGGAGGAGGUUUAUCGAAUUUUCGGCGGAUGCCUCCAAA

± gives the standard error. For some of these results: Variants at the floor of the assay were thinned out.

Common to all, as to details: with glucosamine-6-phosphate
The variants in data set [1] derive from B1. Briefly: kcat; higher = faster cleavage; RNA array. The gist of the method:
(§1)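 A hybridised Cy3 probe tracked barcoded ribozyme variants, transcribed in situ by E. coli RNA polymerase on sequenced MiSeq chips, at 37 °C. The variants received 40 μM to 10 mM glucosamine-6-phosphate in HEPES/KCl/Mg(OAc)2 buffer. kobs came from decay fits and kcat and KM from weighted Michaelis–Menten fits.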

In data set [2] the parent is B1. Briefly: self-cleavage kobs at 160 uM GlcN6P; higher = faster cleavage; RNA array. The gist of the method: as §1
Variants of B1 are the subject of data set [3]. The experiment in a line: self-cleavage kobs at 640 uM GlcN6P; higher = faster cleavage; RNA array. The gist of the method:
as §1

Variants of B1 are the subject of data set [4]. The experiment in a line: self-cleavage kobs at 2500 uM GlcN6P; higher = faster cleavage; RNA array. The gist of the method: as §1
Data set [5] covers variants of B1. The experiment in a line: KM; higher = weaker cofactor use; RNA array. Put shortly: as §1
Variants of B1 are the subject of data set [6]. The experiment in a line: self-cleavage kobs at 40 uM GlcN6P; higher = faster cleavage; RNA array. The gist of the method:
as §1

Variants of B1 are the subject of data set [7]. The experiment in a line: self-cleavage kobs at 10000 uM GlcN6P; higher = faster cleavage; RNA array. The gist of the method:
as §1

The term kcat denotes the number of substrate molecules converted per active site and unit of time at saturation. As a reminder, the KM is the substrate concentration at which the rate is half of its maximum.

In the case of AUAAAAGCGUCAGAACUACAGAAAUGUAGUUGACGAGGAGGAGGUUUAUCGAAUUUUCGGCGGAUGCGUUCAAA [C10U C68G C70U], the turnover number (kcat) with glucosamine-6-phosphate [1] stood at 7.35e-05 ± 2.9e-05 s⁻¹. Further, the “self-cleavage kobs at 160 uM GlcN6P” value in the data set with glucosamine-6-phosphate [2] was 3.3e-05 ± 1.5e-05 s⁻¹. Moreover, in the data set with glucosamine-6-phosphate [3], the “self-cleavage kobs at 640 uM GlcN6P” value was determined as 0.00013 ± 2.8e-05 s⁻¹. Also, the “self-cleavage kobs at 2500 uM GlcN6P” value in the data set with glucosamine-6-phosphate [4] worked out at 5.98e-05 ± 1.4e-05 s⁻¹.

AUAAAAGCGCCCGAACUACAGAAAUGUAGUUGACGAGGUGGAGGUUUAUCGAAUUUUCGGCGGAUGCCUCCAAA [A12C A39U]: the kcat with glucosamine-6-phosphate [1] came out at 0.0119 ± 0.0024 s⁻¹. For the same variant, the KM with glucosamine-6-phosphate [5] was 2230 ± 600 µM. Further, the “self-cleavage kobs at 40 uM GlcN6P” value with glucosamine-6-phosphate [6] is 0.000239 ± 1.9e-05 s⁻¹. For the same variant, in the data set with glucosamine-6-phosphate [2], the “self-cleavage kobs at 160 uM GlcN6P” value was 0.000824 ± 9.8e-05 s⁻¹. Besides, the “self-cleavage kobs at 640 uM GlcN6P” value with glucosamine-6-phosphate [3] came to 0.00219 ± 0.00025 s⁻¹. Further, the “self-cleavage kobs at 2500 uM GlcN6P” value in the data set with glucosamine-6-phosphate [4] was found to be 0.00569 ± 0.00066 s⁻¹. In the data set with glucosamine-6-phosphate [7], the “self-cleavage kobs at 10000 uM GlcN6P” value came out at 0.0112 ± 0.0011 s⁻¹.

For the variant AUAAAAGCGCCAGAACUACAGAAAUGUAGUACACGAGGAGGAGGUUUAUCGAAUUUUCGGCGGAUGCCUCCAAA [U31A G32C], the kcat with glucosamine-6-phosphate [1] was 0.000234 ± 1.1e-05 s⁻¹. Also, in the data set with glucosamine-6-phosphate [5], the Michaelis-Menten constant (KM) is 1950 ± 290 µM. For the same variant, in the data set with glucosamine-6-phosphate [3], the “self-cleavage kobs at 640 uM GlcN6P” value stood at 5.55e-05 ± 1.8e-05 s⁻¹. Further, the “self-cleavage kobs at 2500 uM GlcN6P” value in the data set with glucosamine-6-phosphate [4] turned out to be 0.000141 ± 3e-05 s⁻¹. Also, the “self-cleavage kobs at 10000 uM GlcN6P” value in the data set with glucosamine-6-phosphate [7] came out at 0.000194 ± 2.1e-05 s⁻¹.

Take AUAAAAGCGCCAGAACUACAGAAAUGUACUUGACGAGGAGGAGGUUUAUCGAAUUUUCGGCGGAUGACUCCAAA [G29C C67A]: the kcat with glucosamine-6-phosphate [1] came out at 0.000293 ± 7.2e-05 s⁻¹. The “self-cleavage kobs at 160 uM GlcN6P” value in the data set with glucosamine-6-phosphate [2] worked out at 5.79e-05 ± 1.3e-05 s⁻¹. Also, the “self-cleavage kobs at 640 uM GlcN6P” value with glucosamine-6-phosphate [3] is 0.000128 ± 1.9e-05 s⁻¹. In addition, the “self-cleavage kobs at 2500 uM GlcN6P” value in the data set with glucosamine-6-phosphate [4] turned out to be 0.000163 ± 3.2e-05 s⁻¹. The “self-cleavage kobs at 10000 uM GlcN6P” value with glucosamine-6-phosphate [7] amounted to 0.000363 ± 5.2e-05 s⁻¹.

In the case of AUAAAAGCGCCAGACCUACAGAAAUGUAGUUGACGAGGAGGAGGUUUAUCGAGUUUUCGGCGGAUGCCUCCAAA [A15C A53G], the turnover number (kcat) in the data set with glucosamine-6-phosphate [1] was 0.0101 ± 0.0037 s⁻¹. For the same variant, the KM with glucosamine-6-phosphate [5] was 3060 ± 1500 µM. In the data set with glucosamine-6-phosphate [6], the “self-cleavage kobs at 40 uM GlcN6P” value came out at 0.000195 ± 2e-05 s⁻¹. The “self-cleavage kobs at 160 uM GlcN6P” value with glucosamine-6-phosphate [2] turned out to be 0.000515 ± 8.7e-05 s⁻¹. Besides, the “self-cleavage kobs at 640 uM GlcN6P” value with glucosamine-6-phosphate [3] came out at 0.00139 ± 0.00015 s⁻¹. Also, the “self-cleavage kobs at 2500 uM GlcN6P” value in the data set with glucosamine-6-phosphate [4] was determined as 0.00454 ± 0.00066 s⁻¹. Further, the “self-cleavage kobs at 10000 uM GlcN6P” value in the data set with glucosamine-6-phosphate [7] came out at 0.00839 ± 0.00094 s⁻¹.

In the case of AUAAAAGCGCCAGAACUACAGAAAUGUAGUUGACGAGGUGGAGGUUUAUCGAAUUUUGGGCGGAUGCCUCCAAA [A39U C58G], the catalytic constant (kcat) with glucosamine-6-phosphate [1] was found to be 0.000106 ± 3.3e-06 s⁻¹. For the same variant, the KM with glucosamine-6-phosphate [5] amounted to 9290 ± 520 µM. Further, in the data set with glucosamine-6-phosphate [4], the “self-cleavage kobs at 2500 uM GlcN6P” value was 2.25e-05 ± 1e-05 s⁻¹. Moreover, the “self-cleavage kobs at 10000 uM GlcN6P” value in the data set with glucosamine-6-phosphate [7] worked out at 5.48e-05 ± 1.2e-05 s⁻¹.

With AUAAAAGCGACAGAACUACAGAAAUGUAGUUGACGAGGAGGAGGUUUAUCGAAUUUGCGGCGGAUGCCUCCAAA [C10A U57G], the kcat with glucosamine-6-phosphate [1] is < 1e-05 s⁻¹. Besides, the “self-cleavage kobs at 40 uM GlcN6P” value in the data set with glucosamine-6-phosphate [6] is < 1e-05 s⁻¹.

Turning to AUAAAAGCGCCAGAACUACAGAAAUGUAGUUGACGAAGAGGAGGUUUAGCGAAUUUUCGGCGGAUGCCUCCAAA [G37A U49G], the kcat with glucosamine-6-phosphate [1] was found to be 7.59e-05 ± 1.4e-05 s⁻¹. Moreover, in the data set with glucosamine-6-phosphate [4], the “self-cleavage kobs at 2500 uM GlcN6P” value stood at 4.94e-05 ± 1.8e-05 s⁻¹. In the data set with glucosamine-6-phosphate [7], the “self-cleavage kobs at 10000 uM GlcN6P” value was 6.04e-05 ± 1.3e-05 s⁻¹.
